From paper doi:10.1101/2023.06.15.545135, “Structure of mechanically activated ion channel OSCA2.3 reveals mobile elements in the transmembrane domain” (bioRxiv, 2023) come the findings set out here.

As usually defined, the stoichiometry N is the number of molecules, sites or subunits per partner or assembly.

Data set [1] concerns the target Arabidopsis thaliana OSCA1.2 (Arabidopsis thaliana) (UniProt Q5XEZ5). As to the kind of experiment: cryo-EM structure; OSCA1.2 reconstituted in peptidiscs, ~8 mg/mL; 2.8 Å map, C2 symmetry imposed.
Data set [2] deals with the molecule itself. The description is as above.
Data set [3] concerns the molecule itself. The data set can be described thus: cryo-EM structure; OSCA2.3 reconstituted in peptidiscs, ~3.6 mg/mL, TBS with 2 mM DTT; 2.7 Å map, C2 symmetry imposed.

NSPr peptide (peptidisc peptide): the stoichiometry N in data set [1] came to 4 per protomer.

B1: Arabidopsis thaliana OSCA1.2 (natural protein)
chain: MATLQDIGVSAGINILSAFVFFIIFAVLRLQPFNDRVYFSKWYLKGLRSSPARGGAFAQRFVNLDFRSYMKFLNWMPEALKMPEPELIDHAGLDSVVYLRIYWLGLKIFTPIAVLAWAVLVPVNWTNNTLEMAKQLRNVTSSDIDKLSVSNIPEYSMRFWTHIVMAYAFTIWTCYVLMKEYETIANMRLQFVASEARRPDQFTVLVRNVPPDADESVSELVEHFFLVNHPDHYLTHQVVCNANKLADLVKKKKKLQNWLDYYQLKYARNNSQRIMVKLGFLGLWGQKVDAIEHYIAEIDKISKEISKEREEVVNDPKAIMPAAFVSFKTRWAAAVCAQTQQTRNPTQWLTEWAPEPRDVFWSNLAIPYVSLTVRRLIMHVAFFFLTFFFIVPIAFVQSLATIEGIVKAAPFLKFIVDDKFMKSVIQGFLPGIALKLFLAFLPSILMIMSKFEGFTSISSLERRAAFRYYIFNLVNVFLASVIAGAAFEQLNSFLNQSANQIPKTIGVAIPMKATFFITYIMVDGWAGVAGEILMLKPLIMFHLKNAFLVKTDKDREEAMDPGSIGFNTGEPRIQLYFLLGLVYAPVTPMLLPFILVFFALAYIVYRHQIINVYNQEYESAAAFWPDVHGRVIAALVISQLLLMGLLGTKHAALAAPFLIALPVLTIGFHHFCKGRYEPAFIRYPLQEAMMKDTLETAREPNLNLKGYLQNAYVHPVFKGDEDDYDIDDKLGKFEDEAIIVPTKRQSRRNTPAPSIISGDDSPSLPFSGKLV
notes: OSCA1.2 of Arabidopsis thaliana, UniProt Q5XEZ5; Final model holds residues 2-50, 71-121, 157-266, 290-487, 505-648, 654-718; also called AtOSCA1.2
Turning to B1, in data set [2], the binding result is on record as “binds”.

B2: Arabidopsis thaliana OSCA2.3 (natural protein, UniProt Q8GUH7 1-703, looked up)
chain: MLLSALLTSVGINLGLCFLFFTLYSILRKQPSNVTVYGPRLVKKDGKSQQSNEFNLERLLPTAGWVKRALEPTNDEILSNLGLDALVFIRVFVFSIRVFSFASVVGIFILLPVNYMGTEFEEFFDLPKKSMDNFSISNVNDGSNKLWIHFCAIYIFTAVVCSLLYYEHKYILTKRIAHLYSSKPQPQEFTVLVSGVPLVSGNSISETVENFFREYHSSSYLSHIVVHRTDKLKVLMNDAEKLYKKLTRVKSGSISRQKSRWGGFLGMFGNNVDVVDHYQKKLDKLEDDMRLKQSLLAGEEVPAAFVSFRTRHGAAIATNIQQGIDPTQWLTEAAPEPEDVHWPFFTASFVRRWISNVVVLVAFVALLILYIVPVVLVQGLANLHQLETWFPFLKGILNMKIVSQVITGYLPSLIFQLFLLIVPPIMLLLSSMQGFISHSQIEKSACIKLLIFTVWNSFFANVLSGSALYRVNVFLEPKTIPRVLAAAVPAQASFFVSYVVTSGWTGLSSEILRLVPLLWSFITKLFGKEDDKEFEVPSTPFCQEIPRILFFGLLGITYFFLSPLILPFLLVYYCLGYIIYRNQLLNVYAAKYETGGKFWPIVHSYTIFSLVLMHIIAVGLFGLKELPVASSLTIPLPVLTVLFSIYCQRRFLPNFKSYPTQCLVNKDKADEREQNMSEFYSELVVAYRDPALSASQDSRDISP
notes: OSCA2.3 of Arabidopsis thaliana, UniProt Q8GUH7, full-length, human codon optimized cDNA; 703 residues as printed; C-terminal PreScission Protease site with 4-5 residue linkers before the tags; After PreScission cleavage, remnants of the linker and of the cleavage site stay at the C-terminus; Final model holds residues 3-26, 65-115, 129-225, 302-368, 410-517 and 536-691; also called AtOSCA2.3; …
Regarding B2, the “stoichiometry N” value in data set [3] turned out to be 2.
